What was measured:
human serpinB6 = biological target: T1, human serpinB6 (human, UniProt P35237 1-376); experiment: Luminex bead assay, beads coated with human serpinB6, background (Gfp and Scgn beads) subtracted
T1 construct: Luminex antigen captured from a 293 cell lysate; not shown: V5-His tag of the pcDNA3.1 Directional V5-His-TOPO vector
T1 sequence (looked up): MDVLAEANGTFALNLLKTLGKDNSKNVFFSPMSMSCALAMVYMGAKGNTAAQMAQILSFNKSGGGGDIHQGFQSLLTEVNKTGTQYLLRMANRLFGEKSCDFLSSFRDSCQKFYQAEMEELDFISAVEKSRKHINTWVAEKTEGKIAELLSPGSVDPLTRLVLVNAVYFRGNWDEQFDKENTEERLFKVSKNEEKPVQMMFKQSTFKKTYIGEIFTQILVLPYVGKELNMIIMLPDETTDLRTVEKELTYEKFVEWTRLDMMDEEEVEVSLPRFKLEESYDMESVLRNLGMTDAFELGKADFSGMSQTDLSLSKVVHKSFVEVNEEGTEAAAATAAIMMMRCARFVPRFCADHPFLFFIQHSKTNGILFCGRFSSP
Experimental: (§1) The latter was determined as the average antibody binding to Luminex beads coated with Gfp and Scgn control antigens. Similar data were obtained for antigen binding of Fab fragments of these antibodies (data not shown).
(§2) Luminex assay. Luminex-based technology was used to measure serpinB13 AA in human samples. Initially, the Luminex beads were precoated with serpinB13, Gfp and Scgn, using precleared lysates of 293 cells that had been transfected with individual cDNAs. Biotinylated mouse anti-human K and 2 chain mAbs (BD Biosciences) (dilution 1:300) and streptavidin (Invitrogen) (dilution 1:200) were used as secondary reagents to measure human serum binding activity to individual antigens. The data were expressed as fluorescence intensity (F.I.) due to serum binding activity in the presence of beads precoated with serpinB13 and after subtracting the average F.I. due to serum binding activity in the presence of beads precoated with control proteins, Gfp and Scgn (e.g. F.I.^B13-[F.I.^GFP+F.I.^Segn]/2). The samples were evaluated based on the level of F.I. and the degree of inhibition of binding to serpin-B13 coated beads with soluble serpinB13 (2.5 μg/mL), compared with the bovine serum albumin (BSA). […] All samples were run blind on three independent occasions. Subjects with serum samples that produced a positive results three times were considered positive. Subjects with serum samples that produced a negative result on at least one occasion were considered negative.
(§3) To determine whether anti-serpin activity is specific, binding of three human recombinant antibodies to serpinB13 was examined for potential cross-reactivity with other clade B serpins. Binding to the beads conjugated with Gfp and Scgn was used to subtract the background and the assay was developed using the same reagents as those described above for measuring serpinB13 AA in serum samples.

human serpinB12 = biological target: T2, human serpinB12 (human, UniProt Q96P63 1-405); experiment: Luminex bead assay, beads coated with human serpinB12, background (Gfp and Scgn beads) subtracted
T2 construct: Luminex antigen captured from a 293 cell lysate; not shown: V5-His tag of the pcDNA3.1 Directional V5-His-TOPO vector
T2 sequence (looked up): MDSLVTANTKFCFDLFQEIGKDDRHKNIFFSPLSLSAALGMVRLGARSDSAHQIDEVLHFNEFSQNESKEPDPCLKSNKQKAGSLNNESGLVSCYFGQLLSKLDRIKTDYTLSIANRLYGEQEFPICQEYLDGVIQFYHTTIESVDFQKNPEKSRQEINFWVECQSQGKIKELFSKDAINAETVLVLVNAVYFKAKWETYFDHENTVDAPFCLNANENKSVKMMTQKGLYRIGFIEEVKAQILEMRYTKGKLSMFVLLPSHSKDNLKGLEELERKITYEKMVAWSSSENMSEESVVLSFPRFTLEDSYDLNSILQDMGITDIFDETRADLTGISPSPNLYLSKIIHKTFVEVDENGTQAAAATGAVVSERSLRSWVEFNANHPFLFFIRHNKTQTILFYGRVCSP
Experimental: as §1, §2, §3

human serpinB8 = biological target: T3, human serpinB8 (human, UniProt P50452 1-374); experiment: Luminex bead assay, beads coated with human serpinB8, background (Gfp and Scgn beads) subtracted
T3 construct: Luminex antigen captured from a 293 cell lysate; not shown: V5-His tag of the pcDNA3.1 Directional V5-His-TOPO vector
T3 sequence (looked up): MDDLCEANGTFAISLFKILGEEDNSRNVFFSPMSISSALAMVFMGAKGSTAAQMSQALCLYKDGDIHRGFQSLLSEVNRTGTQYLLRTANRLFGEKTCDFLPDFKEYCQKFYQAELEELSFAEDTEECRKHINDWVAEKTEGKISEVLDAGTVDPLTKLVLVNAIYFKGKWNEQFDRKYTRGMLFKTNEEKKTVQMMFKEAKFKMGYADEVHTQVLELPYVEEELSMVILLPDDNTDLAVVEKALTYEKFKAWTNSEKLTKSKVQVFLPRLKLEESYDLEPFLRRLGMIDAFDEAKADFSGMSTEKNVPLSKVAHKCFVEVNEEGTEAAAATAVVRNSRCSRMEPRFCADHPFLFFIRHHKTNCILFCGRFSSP
Experimental: as §1, §2, §3

human serpinB9 = biological target: T4, human serpinB9 (human, UniProt P50453 1-376); experiment: Luminex bead assay, beads coated with human serpinB9, background (Gfp and Scgn beads) subtracted
T4 construct: Luminex antigen captured from a 293 cell lysate; not shown: V5-His tag of the pcDNA3.1 Directional V5-His-TOPO vector
T4 sequence (looked up): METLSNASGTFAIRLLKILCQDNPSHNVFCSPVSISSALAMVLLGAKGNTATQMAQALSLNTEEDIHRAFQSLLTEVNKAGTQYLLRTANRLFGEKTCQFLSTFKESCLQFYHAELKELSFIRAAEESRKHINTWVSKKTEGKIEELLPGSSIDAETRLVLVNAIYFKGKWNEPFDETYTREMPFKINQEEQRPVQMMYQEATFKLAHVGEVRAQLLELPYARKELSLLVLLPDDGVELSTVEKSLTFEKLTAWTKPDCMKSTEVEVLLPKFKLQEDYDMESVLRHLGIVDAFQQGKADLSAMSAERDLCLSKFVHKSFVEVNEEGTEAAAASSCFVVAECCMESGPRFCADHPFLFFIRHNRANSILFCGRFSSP
Experimental: as §1, §2, §3

human serpinB1 = biological target: T5, human serpinB1 (human, UniProt P30740 1-379); experiment: Luminex bead assay, beads coated with human serpinB1, background (Gfp and Scgn beads) subtracted
T5 construct: Luminex antigen captured from a 293 cell lysate; not shown: V5-His tag of the pcDNA3.1 Directional V5-His-TOPO vector
T5 sequence (looked up): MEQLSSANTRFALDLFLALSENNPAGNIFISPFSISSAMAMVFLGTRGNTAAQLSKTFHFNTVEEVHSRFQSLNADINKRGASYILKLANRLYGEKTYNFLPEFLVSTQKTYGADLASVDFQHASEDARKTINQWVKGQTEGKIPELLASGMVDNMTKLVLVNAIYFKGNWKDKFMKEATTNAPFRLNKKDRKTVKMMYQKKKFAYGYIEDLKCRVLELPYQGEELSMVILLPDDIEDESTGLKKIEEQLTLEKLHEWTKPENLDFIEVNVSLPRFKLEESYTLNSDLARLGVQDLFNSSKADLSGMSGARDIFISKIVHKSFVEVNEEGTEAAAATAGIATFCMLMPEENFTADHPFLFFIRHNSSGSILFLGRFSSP
Experimental: as §1, §2, §3

Measured: binding result

B1: recombinant fully human anti-serpinB13 antibody Clone 1 (antibody, human IgG1, kappa, V domains shown)
VH: QVQLQESGGGVVQPGRSLRLSCAASGFTFSSYGMHWVRQAPGKGLEWVAVISYDGSNKYYADSVKGRFTISRDNSKNTLYLQMNSLRAEDTAVYYCARDLGAVIAVAGTSTPYNWFDPWGQGTLVTVSS
VL: DVVMTQSPLSLPVTPGEPASISCRSRQSLLHSNGHNYLGWYLQKPGQSPQLLIYLASIRASGIPDRFSGSGSGTDFTLKISRVEAEDVGVYYCMQALQTPYTFGQGTKLEIKR
notes: also called mAb1; mAbs1
no binding (tested: 1.0 µg/mL): human serpinB6 | human serpinB12 | human serpinB8 | human serpinB9 | human serpinB1

B2: recombinant fully human anti-serpinB13 antibody Clone 3 (antibody, human IgG1, kappa, V domains shown)
VH: QVQLQQWGAGLLKPSETLSLTCAVYGGSFSGYYWSWIRQPPGKGLEWIGEINHSGSTNYNPSLKSRVTISVDTSKNQFSLKLSSVTAADTAVYYCARRYCSGGSCYLVGTGSELDYWGQGTLVTVSS
VL: DIQMTQSPSTLSASVGDRVTITCRASQSISSWLAWYQQKPGKAPKLLIYKASSLEIGVPSRFSGSGYGTEFTLTISSLQPDDFATYYCLQYSTHSTFGQGTRVEIKR
notes: also called mAb3; CLONE3-H(m1) / CLONE3-L(m1)
no binding (tested: 1.0 µg/mL): human serpinB6 | human serpinB12 | human serpinB8 | human serpinB9 | human serpinB1

B3: recombinant fully human anti-serpinB13 antibody Clone 2 (antibody, human IgG1, kappa, V domains shown)
VH: QMQLVQSGGGVVRPGGSLRLSCAASGFTFDDYGMSWVRQAPGKGLEWVSGINWNGGSTGYADSVKGRFTISRDNAKNSLYLQMNSLRAEDTALYYCARESSMTTVTTYLLREVGVGLDFDYWGQGTLVTVSS
VL: ETTLTQSPGTLSLSPGERATLSCRASQTVSGSYLAWYQQKPGQPPRLLIYGASSRATGIPDRFSGSGSGTDFTLTISRLEPEDFAVYYCQDYGSSRTFGQGTKVELKR
notes: also called mAb2; CLONE2-H(m1) / CLONE2-L(m1)
no binding (tested: 1.0 µg/mL): human serpinB6 | human serpinB12 | human serpinB8 | human serpinB9 | human serpinB1
